What follows are sequences tested on Escherichia coli TOP10 (assay: shrunken log2 fold change of peptide-encoding DNA abundance (4.5 h post-induction vs induction); higher = less antimicrobial activity (less host growth inhibition)). Conditions: time post-induction: 4.5 h; library: site-saturation at positions 5, 18, 19, 20.
With RRIRSRPPRLPRPRPRPRAVPRP the “shrunken log2 fold change” value was 0.582. In the case of RRIRDRPPRLPRPRPRPWGRPRP, the “shrunken log2 fold change” value is reported as 0.258. RRIRTRPPRLPRPRPRPCRPPRP was tested, and the “shrunken log2 fold change” value was -0.415. RRIRFRPPRLPRPRPRPESDPRP was tested, and the “shrunken log2 fold change” value was 0.17. In the case of RRIRMRPPRLPRPRPRPIWTPRP, the “shrunken log2 fold change” value is reported as 0.12. RRIRLRPPRLPRPRPRPRPMPRP was tested, and the “shrunken log2 fold change” value was 0.725. For RRIRGRPPRLPRPRPRPFHQPRP, the “shrunken log2 fold change” value was -0.199. In the case of RRIRFRPPRLPRPRPRPFNGPRP, the “shrunken log2 fold change” value is reported as -0.163. RRIRPRPPRLPRPRPRPKETPRP was tested, and the “shrunken log2 fold change” value was 0.0101. With RRIRRRPPRLPRPRPRPRDLPRP the “shrunken log2 fold change” value was 0.427. RRIRLRPPRLPRPRPRPSLSPRP was tested, and the “shrunken log2 fold change” value was -0.305. RRIRERPPRLPRPRPRPFNQPRP was tested, and the “shrunken log2 fold change” value was -0.279. For RRIRRRPPRLPRPRPRPVGLPRP, the “shrunken log2 fold change” value was 0.111. With RRIRSRPPRLPRPRPRPQWTPRP the “shrunken log2 fold change” value was -0.0105. With RRIRYRPPRLPRPRPRPYLFPRP the “shrunken log2 fold change” value was -0.687. RRIRLRPPRLPRPRPRPYPEPRP was tested, and the “shrunken log2 fold change” value was -0.201. For RRIRPRPPRLPRPRPRPISAPRP, the “shrunken log2 fold change” value was -0.0726. In the case of RRIRSRPPRLPRPRPRPVTRPRP, the “shrunken log2 fold change” value is reported as -0.538. In the case of RRIRLRPPRLPRPRPRPMITPRP, the “shrunken log2 fold change” value is reported as -0.07. With RRIRIRPPRLPRPRPRPDLLPRP the “shrunken log2 fold change” value was -0.634. In the case of RRIRMRPPRLPRPRPRPFVPPRP, the “shrunken log2 fold change” value is reported as -0.375. For RRIRQRPPRLPRPRPRPWFPPRP, the “shrunken log2 fold change” value was -0.156. RRIRTRPPRLPRPRPRPLKTPRP was tested, and the “shrunken log2 fold change” value was -0.0866. For RRIRMRPPRLPRPRPRPRYHPRP, the “shrunken log2 fold change” value was -0.186. With RRIRTRPPRLPRPRPRPHGTPRP the “shrunken log2 fold change” value was 0.219. For RRIRKRPPRLPRPRPRPHGHPRP, the “shrunken log2 fold change” value was -0.248. In the case of RRIRRRPPRLPRPRPRPRRCPRP, the “shrunken log2 fold change” value is reported as 0.615. RRIRKRPPRLPRPRPRPYQQPRP was tested, and the “shrunken log2 fold change” value was -0.00547. For RRIRARPPRLPRPRPRPHTLPRP, the “shrunken log2 fold change” value was -0.213. In the case of RRIRARPPRLPRPRPRPEFMPRP, the “shrunken log2 fold change” value is reported as 0.115. In the case of RRIRWRPPRLPRPRPRPTMRPRP, the “shrunken log2 fold change” value is reported as 0.925. RRIRHRPPRLPRPRPRPLFCPRP was tested, and the “shrunken log2 fold change” value was -0.604. For RRIRERPPRLPRPRPRPSKDPRP, the “shrunken log2 fold change” value was -0.664. With RRIRQRPPRLPRPRPRPVIKPRP the “shrunken log2 fold change” value was -0.772. With RRIRHRPPRLPRPRPRPLTPPRP the “shrunken log2 fold change” value was -0.119. In the case of RRIRWRPPRLPRPRPRPGEGPRP, the “shrunken log2 fold change” value is reported as 0.154. With RRIRSRPPRLPRPRPRPHGRPRP the “shrunken log2 fold change” value was -0.0222. RRIRRRPPRLPRPRPRPNLTPRP was tested, and the “shrunken log2 fold change” value was -0.245. With RRIRGRPPRLPRPRPRPQYVPRP the “shrunken log2 fold change” value was -0.0061. RRIRPRPPRLPRPRPRPWHNPRP was tested, and the “shrunken log2 fold change” value was -0.809. RRIRYRPPRLPRPRPRPKRPPRP was tested, and the “shrunken log2 fold change” value was 0.45. In the case of RRIRPRPPRLPRPRPRPHDPPRP, the “shrunken log2 fold change” value is reported as 0.192. With RRIRCRPPRLPRPRPRPNNRPRP the “shrunken log2 fold change” value was -0.738. For RRIRTRPPRLPRPRPRPLIPPRP, the “shrunken log2 fold change” value was -0.106. For RRIRNRPPRLPRPRPRPTSMPRP, the “shrunken log2 fold change” value was 0.0812. RRIRKRPPRLPRPRPRPTCFPRP was tested, and the “shrunken log2 fold change” value was 0.259. For RRIRDRPPRLPRPRPRPHHFPRP, the “shrunken log2 fold change” value was -0.49. In the case of RRIRPRPPRLPRPRPRPVGVPRP, the “shrunken log2 fold change” value is reported as 0.52. In the case of RRIRQRPPRLPRPRPRPTDVPRP, the “shrunken log2 fold change” value is reported as -0.194. For RRIRGRPPRLPRPRPRPNLGPRP, the “shrunken log2 fold change” value was 0.191. With RRIRYRPPRLPRPRPRPNSNPRP the “shrunken log2 fold change” value was -1.47. RRIRVRPPRLPRPRPRPNFQPRP was tested, and the “shrunken log2 fold change” value was -0.175. RRIRRRPPRLPRPRPRPNEAPRP was tested, and the “shrunken log2 fold change” value was 0.271. For RRIRFRPPRLPRPRPRPLARPRP, the “shrunken log2 fold change” value was -0.0473. In the case of RRIRQRPPRLPRPRPRPLYKPRP, the “shrunken log2 fold change” value is reported as -1.34. RRIRMRPPRLPRPRPRPCEHPRP was tested, and the “shrunken log2 fold change” value was 0.249. With RRIRMRPPRLPRPRPRPNHWPRP the “shrunken log2 fold change” value was 0.14. RRIRYRPPRLPRPRPRPSCSPRP was tested, and the “shrunken log2 fold change” value was -0.972. For RRIRCRPPRLPRPRPRPANVPRP, the “shrunken log2 fold change” value was -0.0934. With RRIRNRPPRLPRPRPRPVHPPRP the “shrunken log2 fold change” value was -0.0892. For RRIRDRPPRLPRPRPRPRDNPRP, the “shrunken log2 fold change” value was -0.339. For RRIRTRPPRLPRPRPRPMNTPRP, the “shrunken log2 fold change” value was -0.609. For RRIRTRPPRLPRPRPRPFLNPRP, the “shrunken log2 fold change” value was -0.183. RRIRKRPPRLPRPRPRPKLYPRP was tested, and the “shrunken log2 fold change” value was 0.164. For RRIRNRPPRLPRPRPRPETSPRP, the “shrunken log2 fold change” value was 0.24. RRIRLRPPRLPRPRPRPFEKPRP was tested, and the “shrunken log2 fold change” value was -0.0511. For RRIRLRPPRLPRPRPRPQVLPRP, the “shrunken log2 fold change” value was -0.0429. For RRIRWRPPRLPRPRPRPPAFPRP, the “shrunken log2 fold change” value was 0.204. RRIRHRPPRLPRPRPRPPRWPRP was tested, and the “shrunken log2 fold change” value was 0.137. RRIRMRPPRLPRPRPRPVACPRP was tested, and the “shrunken log2 fold change” value was 0.122. With RRIRCRPPRLPRPRPRPGQWPRP the “shrunken log2 fold change” value was -0.125. In the case of RRIRWRPPRLPRPRPRPWNHPRP, the “shrunken log2 fold change” value is reported as -0.0518. For RRIRFRPPRLPRPRPRPACMPRP, the “shrunken log2 fold change” value was -0.263. For RRIRWRPPRLPRPRPRPNFKPRP, the “shrunken log2 fold change” value was -0.264. For RRIRCRPPRLPRPRPRPHDAPRP, the “shrunken log2 fold change” value was -0.336.
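Note: peptides expressed intracellularly from a pBAD plasmid library in pooled LB shake-flask culture, induced with 0.3% L-arabinose, DNA abundance read by NGS, three biological replicates, DESeq2 with apeglm shrinkage.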
